Source: article PMC12782892, “Natural variations in MdBPM2/MdRGLG3‐MdNAC83 network controlling the quantitative segregation of apple fruit storability”

Biological target: MdNAC83 (Malus domestica, UniProt D9ZJA0 1-255)
Assay: EMSA; LightShift Chemiluminescent EMSA kit (Thermo), per Fan et al. 2018; buffer, salt, pH and temperature not stated
Details: protein: recombinant, tags: His (pET-32a), chain copies: 2, blunt

MdNAC83, sequence (D9ZJA0 entry or part of it): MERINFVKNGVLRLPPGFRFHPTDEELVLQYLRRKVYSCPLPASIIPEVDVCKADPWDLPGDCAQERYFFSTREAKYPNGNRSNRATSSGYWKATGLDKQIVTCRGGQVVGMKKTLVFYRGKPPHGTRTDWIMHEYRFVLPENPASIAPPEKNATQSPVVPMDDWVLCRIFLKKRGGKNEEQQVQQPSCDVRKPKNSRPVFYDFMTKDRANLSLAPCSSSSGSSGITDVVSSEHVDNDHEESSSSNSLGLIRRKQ

B1: MdMANA3 promoter probe (MdMAN3-F/R) (dsDNA)
DNA 1: GGTTAATTTTCTCAATTTCGTATTGATTTACTCTTGTACT
DNA 2: AGTACAAGAGTAAATCAATACGAAATTGAGAAAATTAACC
Q: Does B1 bind ((LightShift kit; MdMAN3-HotF))?
A: binds

B2: MdACO1 promoter probe (MdACO1-F/R) (dsDNA)
DNA 1: TTGGTAGGGGTCCATCAGGACGTGCTTACTGTTCCCTACT
DNA 2: AGTAGGGAACAGTAAGCACGTCCTGATGGACCCCTACCAA
Q: Does B2 bind ((LightShift kit; MdACO1-HotF))?
A: binds

B3: MdXTH28 promoter probe (MdXH28-F/R) (dsDNA)
DNA 1: CCGTCCAAACCAGTAAACACGTAATTATAATCTCATTTAT
DNA 2: ATAAATGAGATTATAATTACGTGTTTACTGGTTTGGACGG
Q: Does B3 bind ((LightShift kit))?
A: binds
